The results in this text go back to paper PMC7771667, “Discovery of potent and specific inhibitors targeting the active site of MMP-9 from the engineered SPINK2 library” (PLoS ONE, 2020).

The target of experiment [1] is T1, active MMP-9_Cat-H6 (human, UniProt P14780 107-449).
T1 construct: human MMP-9 catalytic domain with the Fn-like domain, without the HPX domain; pro-form residues 20-449; not shown: His6, C-terminal, kept
The experiment in a line: SEC; MMP-9 (25 μM) incubated with TIMP-1 or M91005 (75 μM; molar ratio 3:1) in PBS for 1 h at 4°C; ACQUITY UPLC BEH200 column in PBS; shift of the retention time. To be noted: both partners purified.

The target of experiment [2] is T2, MMP-9_Cat_E402Q-H6 (human, UniProt P14780 107-449, E402Q).
T2 construct: human MMP-9 catalytic domain with the Fn-like domain, without the HPX domain; pro-form residues 20-449; also called pro-peptide-removed E402Q mutant; active-site mutant; source: HEK293F, transiently expressed, purified (HisTrap excel), pro-peptide removed with MMP-3; not shown: His6, C-terminal, kept
T2 sequence (P14780 107-449 E402Q): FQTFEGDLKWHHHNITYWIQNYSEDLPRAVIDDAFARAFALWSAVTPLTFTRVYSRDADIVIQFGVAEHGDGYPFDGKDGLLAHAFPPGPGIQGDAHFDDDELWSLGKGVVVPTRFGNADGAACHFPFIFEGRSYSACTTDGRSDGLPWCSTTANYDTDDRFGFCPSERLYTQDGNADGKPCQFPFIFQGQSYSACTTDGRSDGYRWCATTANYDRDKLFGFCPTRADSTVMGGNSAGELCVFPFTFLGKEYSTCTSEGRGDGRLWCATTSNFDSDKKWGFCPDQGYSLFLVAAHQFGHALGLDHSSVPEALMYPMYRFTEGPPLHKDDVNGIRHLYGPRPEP
The description is as above. The conditions noted are these: both partners purified.

T1 sequence (P14780 107-449): as the sequence (P14780 107-449 E402Q) above, with Q296E counted along it

B1: Human TIMP-1 (natural protein)
chain: not shown
notes: signal peptide in the construct; human TIMP-1 residues 1-207
In the case of B1, the binding result in experiment [1] and in experiment [2] was “binds” in each case.
